Measurements reported in patent US20080050387A1, “Non-Androgen Dependent Roles for Androgen Receptor and Non-Androgen Related Inhibitors of Androgen Receptor” (priority 2003, published 2008).

What was measured:
AR [1] = assay: Mammalian two-hybrid assay hRad9 / AR in PC-3 cells; type: cell-based, human; settings: 10 nM DHT
Procedure: (§1) PC-3, CWR22R, and LNCaP cell lines were maintained in […] supplemented with 10% fetal calf serum (FCS). Transient transfection for luciferase assays was carried out in 24-well plates (5×10^4 cells per well) using SuperFect as described previously (Lin, H. K., et al., Embo J 21:4037-48 (2002)). DNA mixtures in transfection assay were indicated in each figure. The total amount of transfected DNA was kept constant (1 μg) by adding the corresponding amounts of empty expression plasmids. After transfection, cells were cultured in […] supplemented with 5% charcoal-stripped FCS in the presence or absence of 10 nM dihydrotestosterone (DHT) for 18 h. Luciferase assays were performed as previously described (Yang, L., et al., J Biol Chem 278:16820-7 (2003)). In Western blotting assays, CWR22R or LNCaP cells were transfected by electroporation using 5×10^6 cells/0.4 ml of RPMI medium containing 2% FCS plus 9 μg of the indicated plasmids. 1 μg of EGFP expression vector was used for transfection efficiency. Electroporation was performed at 250 V and 950 μF using Gene Pulser II (Bio-Rad)
Target sequence in this assay (P10275 with tags, fused parts or gaps DEL79-80/DUP473-473): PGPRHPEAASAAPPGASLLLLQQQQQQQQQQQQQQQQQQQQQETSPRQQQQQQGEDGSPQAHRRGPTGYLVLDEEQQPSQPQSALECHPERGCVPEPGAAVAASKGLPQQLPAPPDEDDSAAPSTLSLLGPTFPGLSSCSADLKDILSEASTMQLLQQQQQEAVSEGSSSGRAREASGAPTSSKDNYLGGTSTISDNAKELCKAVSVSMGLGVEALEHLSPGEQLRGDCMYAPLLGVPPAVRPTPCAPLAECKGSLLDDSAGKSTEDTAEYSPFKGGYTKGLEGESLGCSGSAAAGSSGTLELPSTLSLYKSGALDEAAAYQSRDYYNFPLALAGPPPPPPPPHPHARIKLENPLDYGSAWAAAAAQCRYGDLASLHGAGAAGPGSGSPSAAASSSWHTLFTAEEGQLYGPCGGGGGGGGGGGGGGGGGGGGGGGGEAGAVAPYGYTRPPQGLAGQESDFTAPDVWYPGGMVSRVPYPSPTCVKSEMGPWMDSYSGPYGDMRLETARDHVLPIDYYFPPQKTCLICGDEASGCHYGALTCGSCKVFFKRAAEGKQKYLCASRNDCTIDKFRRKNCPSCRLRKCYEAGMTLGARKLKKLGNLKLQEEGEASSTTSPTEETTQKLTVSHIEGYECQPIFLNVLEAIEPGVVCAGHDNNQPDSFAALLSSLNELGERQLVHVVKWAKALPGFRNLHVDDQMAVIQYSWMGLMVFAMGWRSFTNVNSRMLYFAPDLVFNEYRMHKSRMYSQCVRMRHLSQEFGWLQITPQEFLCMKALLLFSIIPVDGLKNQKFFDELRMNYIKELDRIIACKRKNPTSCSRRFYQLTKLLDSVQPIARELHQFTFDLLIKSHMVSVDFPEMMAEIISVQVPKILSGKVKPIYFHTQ

AR N/C interaction = assay: Reconstituted AR transcription assay (AR N/C interaction) in PC-3 cells; type: cell-based, human; settings: 10 nM DHT, MMTV-LUC
Chain of AR N/C interaction (P10275 557-920): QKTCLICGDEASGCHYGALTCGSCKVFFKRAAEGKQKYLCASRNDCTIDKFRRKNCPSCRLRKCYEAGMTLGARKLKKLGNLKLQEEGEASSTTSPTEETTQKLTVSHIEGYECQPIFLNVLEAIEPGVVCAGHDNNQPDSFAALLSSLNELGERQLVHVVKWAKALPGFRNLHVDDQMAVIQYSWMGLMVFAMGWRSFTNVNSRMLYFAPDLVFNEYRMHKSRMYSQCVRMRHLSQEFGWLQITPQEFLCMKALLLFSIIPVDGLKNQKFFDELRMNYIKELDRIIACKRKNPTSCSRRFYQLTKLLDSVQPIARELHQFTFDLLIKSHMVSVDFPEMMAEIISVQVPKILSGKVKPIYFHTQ
Procedure: as §1

AR [2] = assay: AR transactivation MMTV-LUC assay in PC-3 cells with hRad9; type: cell-based, human; settings: pCMV-AR, hRad9 termini
Procedure: as §1
Target sequence in this assay (P10275 with tags, fused parts or gaps DEL79-80/DUP473-473): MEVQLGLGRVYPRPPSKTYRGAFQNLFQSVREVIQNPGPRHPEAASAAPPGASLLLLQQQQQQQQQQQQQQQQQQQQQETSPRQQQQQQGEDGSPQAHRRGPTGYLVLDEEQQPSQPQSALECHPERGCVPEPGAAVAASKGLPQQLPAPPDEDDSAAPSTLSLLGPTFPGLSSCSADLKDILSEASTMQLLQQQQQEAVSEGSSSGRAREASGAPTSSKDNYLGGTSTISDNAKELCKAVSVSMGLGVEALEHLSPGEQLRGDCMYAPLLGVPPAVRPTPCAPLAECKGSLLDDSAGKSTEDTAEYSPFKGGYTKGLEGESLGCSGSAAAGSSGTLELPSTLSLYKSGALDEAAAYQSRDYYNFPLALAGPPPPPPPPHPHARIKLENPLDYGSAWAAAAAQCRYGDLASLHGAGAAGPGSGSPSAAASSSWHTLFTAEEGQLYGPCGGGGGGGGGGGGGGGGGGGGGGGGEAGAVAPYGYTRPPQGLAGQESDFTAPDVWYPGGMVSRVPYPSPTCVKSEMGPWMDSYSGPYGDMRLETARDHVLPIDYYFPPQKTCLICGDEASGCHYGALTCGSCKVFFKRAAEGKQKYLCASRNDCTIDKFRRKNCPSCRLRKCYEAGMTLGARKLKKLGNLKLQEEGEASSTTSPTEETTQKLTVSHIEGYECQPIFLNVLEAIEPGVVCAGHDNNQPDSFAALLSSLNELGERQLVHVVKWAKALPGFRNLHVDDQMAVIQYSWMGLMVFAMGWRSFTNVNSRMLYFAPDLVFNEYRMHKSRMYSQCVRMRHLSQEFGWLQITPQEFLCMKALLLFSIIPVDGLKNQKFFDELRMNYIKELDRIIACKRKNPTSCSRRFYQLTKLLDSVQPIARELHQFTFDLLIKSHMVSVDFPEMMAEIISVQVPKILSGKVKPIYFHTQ

[3] = test system: MAPK (GAL4-Elk1 transactivation); assay: GAL4-Elk1 reporter gene assay (MAPK activation) in MCF7 cells; type: cell-based, human; settings: AR-FL-activated, pG5-luc reporter
Procedure: Cells were plated in 96-well plates and plasmids at 0.5 μg per well were transfected into cells using SuperFect (Qiagen). The medium was changed 2 h after transfection and cells were cultured in the medium containing 10% CDS-FBS or 0.2% HI-FBS for 16 h, followed by treatment with 50 ng/ml EGF, 100 ng/ml IGF-1,100 ng/ml HRG-α 0.1 nM E2, or 1 nM DHT for another 16 h. Cells were then harvested and the luciferase activity was analyzed using Dual-Luciferase Reporter Assay System (Promega). 5 ng pRL-TK per well was used as internal control.

AR [4] = assay: AR transactivation luciferase assay in COS-1 cells with GSK3β; type: cell-based, human
Procedure: (§2) COS-1 and PC-3 cells were maintained in early to mid-log phase in DMEM medium, supplemented with 10% fetal bovine serum (FBS), 50 units/ml penicillin and 50 μg/ml streptormnycin in incubators with humidified air and 5% carbon dioxide at 37° C. LNCaP cells were maintained in RPMI (GIBCO/BRL) medium. Twenty-four h prior to transfection, cells washed with Hanks' buffered saline solution, trypsinized, and seeded to be a density of 40-60% confluence for transfection. Cells in 12 well plates were refed with fresh medium 2 hours before transfection and transfected according to the “SuperFect Transfection” instructions (QIAGEN). After 2-3 h incubation, cells were treated with medium supplemented with charcoal-dextran treated FBS containing either ethanol or ligands. Cells were further incubated at 37° C. for 24 h, washed with PBS, and harvested.

[5] = biological target: T1, human glucocorticoid receptor (hGR) (Homo sapiens, UniProt P04150); assay: hGR transactivation luciferase assay in COS-1 cells with GSK3β; type: cell-based
T1 construct: expressed in transfected cells; host or cells: COS-1
T1 sequence (P04150 1-777): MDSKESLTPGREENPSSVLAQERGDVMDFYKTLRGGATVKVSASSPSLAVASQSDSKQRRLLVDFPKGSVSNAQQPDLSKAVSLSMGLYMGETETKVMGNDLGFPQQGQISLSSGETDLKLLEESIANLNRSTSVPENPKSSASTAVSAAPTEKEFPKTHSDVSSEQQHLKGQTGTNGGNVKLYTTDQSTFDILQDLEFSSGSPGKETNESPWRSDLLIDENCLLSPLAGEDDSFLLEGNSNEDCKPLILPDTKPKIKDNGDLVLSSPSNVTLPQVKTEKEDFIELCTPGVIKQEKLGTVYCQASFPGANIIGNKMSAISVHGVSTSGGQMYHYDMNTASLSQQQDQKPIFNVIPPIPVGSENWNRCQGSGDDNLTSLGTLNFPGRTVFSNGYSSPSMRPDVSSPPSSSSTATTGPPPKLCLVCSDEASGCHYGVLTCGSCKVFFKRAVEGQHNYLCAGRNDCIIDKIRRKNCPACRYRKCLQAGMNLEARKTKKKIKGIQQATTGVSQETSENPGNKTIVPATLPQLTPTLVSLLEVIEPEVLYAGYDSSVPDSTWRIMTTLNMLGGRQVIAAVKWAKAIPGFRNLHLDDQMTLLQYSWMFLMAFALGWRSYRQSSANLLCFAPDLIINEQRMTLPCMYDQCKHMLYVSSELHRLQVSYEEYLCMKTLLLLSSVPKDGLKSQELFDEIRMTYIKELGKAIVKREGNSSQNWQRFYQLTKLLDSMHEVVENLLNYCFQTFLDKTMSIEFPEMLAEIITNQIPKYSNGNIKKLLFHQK
Procedure: as §2

AR [6] = assay: AR transactivation luciferase assay in LNCaP cells with GSK3β; type: cell-based, human; settings: MMTV-Luc, DHT
Procedure: as §2
Target sequence in this assay (P10275 whole entry T878A): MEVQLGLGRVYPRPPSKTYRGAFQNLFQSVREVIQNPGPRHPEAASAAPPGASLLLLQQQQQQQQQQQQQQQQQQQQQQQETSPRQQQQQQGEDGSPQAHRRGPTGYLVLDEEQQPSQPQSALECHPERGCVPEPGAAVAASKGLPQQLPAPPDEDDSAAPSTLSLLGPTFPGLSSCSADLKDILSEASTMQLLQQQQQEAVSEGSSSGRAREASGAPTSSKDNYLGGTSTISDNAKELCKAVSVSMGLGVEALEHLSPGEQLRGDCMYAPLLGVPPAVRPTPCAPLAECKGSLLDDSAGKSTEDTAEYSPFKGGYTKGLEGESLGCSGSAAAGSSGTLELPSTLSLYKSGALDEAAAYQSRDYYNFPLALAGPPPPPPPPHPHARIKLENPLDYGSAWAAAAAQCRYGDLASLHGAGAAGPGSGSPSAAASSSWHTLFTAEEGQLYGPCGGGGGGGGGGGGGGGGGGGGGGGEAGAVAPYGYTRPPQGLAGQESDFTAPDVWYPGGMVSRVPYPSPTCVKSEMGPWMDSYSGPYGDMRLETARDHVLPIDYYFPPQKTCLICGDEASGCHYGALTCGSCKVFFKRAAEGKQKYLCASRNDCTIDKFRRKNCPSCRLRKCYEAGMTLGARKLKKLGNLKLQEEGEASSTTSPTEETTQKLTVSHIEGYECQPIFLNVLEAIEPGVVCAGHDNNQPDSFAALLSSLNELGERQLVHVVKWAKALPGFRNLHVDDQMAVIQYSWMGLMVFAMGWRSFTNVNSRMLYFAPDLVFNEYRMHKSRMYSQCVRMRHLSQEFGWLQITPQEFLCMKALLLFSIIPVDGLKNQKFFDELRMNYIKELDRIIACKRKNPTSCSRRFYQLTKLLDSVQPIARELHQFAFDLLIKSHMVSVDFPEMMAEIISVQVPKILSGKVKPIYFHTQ

[7] = test system: PSA expression in LNCaP cells; assay: PSA promoter activity and PSA mRNA (Northern blot) in LNCaP cells with GSK3β; type: cell-based, human
Procedure: as §2

AR [8] = assay: In vitro kinase assay of GSK3β on AR fragments; type: biochemical, human; settings: 30 min at 30° C.
AR AF-1 / AF-2 = assay: GAL4-ARN / GAL4-AR-LBD pG5-Luc reporter assay in COS-1 cells; type: cell-based, human
Procedure: as §2

AR [9] = assay: AR expression by immunoblot in LNCaP cells transfected with GSK3β; type: cell-based, human; settings: pCMV-GSK3β vs pCMV vector
Target sequence in this assay (P10275 whole entry T878A): as above

AR [10] = assay: GST pull-down assay GSK3β / AR; type: binding, human; settings: presence or absence of DHT
Procedure: 5 μl of in vitro-translated β5S]-labeled AR was incubated with the GST or GST-GSK3β bound to glutathione-Sepharose beads in a pull-down assay. After extensive washing, bead-bound protein complexes were loaded onto 8% SDS-PAGE and analyzed by Phosphorlmager. The input represents 20% amount of [^35S]-labeled proteins used in each pull-down assay. […] COS-1 cells were solubilized in RIPA buffer containing 0.5% NP-40 and protease inhibitors. Immunoprecipitation was performed using mouse HA antibody (1:1000) or normal mouse IgG (N-IgG) and then analyzed by Western blot with anti-AR NH27 (1:1000) or anti-GSK3β (1:1000) antibodies, followed by incubation with AP conjugate goat anti-rabbit or rabbit anti-mouse IgM antibodies, and visualized with AP conjugate kit (Bio-Rad).
Target sequence in this assay (P49841 whole entry partner): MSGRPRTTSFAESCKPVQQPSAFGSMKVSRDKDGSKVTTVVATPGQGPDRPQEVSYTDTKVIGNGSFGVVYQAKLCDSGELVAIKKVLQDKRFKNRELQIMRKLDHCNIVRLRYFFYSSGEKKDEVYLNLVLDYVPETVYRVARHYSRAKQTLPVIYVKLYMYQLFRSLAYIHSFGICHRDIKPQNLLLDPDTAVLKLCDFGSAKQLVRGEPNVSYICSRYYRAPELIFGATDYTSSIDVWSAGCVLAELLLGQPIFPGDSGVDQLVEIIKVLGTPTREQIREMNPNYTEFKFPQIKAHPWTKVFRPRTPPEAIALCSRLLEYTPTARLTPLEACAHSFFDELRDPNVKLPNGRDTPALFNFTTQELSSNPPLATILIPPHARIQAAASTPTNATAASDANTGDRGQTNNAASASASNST

B1: N-hRad9: PCNA-like domain of hRad9, aa 1-270 (protein)
chain: MKCLVTGGNVKVLGKAVHSLSRIGDELYLEPLEDGLSLRTVNSSRSAYACFLFAPLFFQQYQAATPGQDLLRCKILMKSFLSVFRSLAMLEKTVEKCCISLNGRSSRLVVQLHCKFGVRKTHNLSFQDCESLQAVFDPASCPHMLRAPARVLGEAVLPFSPALAEVTLGIGRGRRVILRSYHEEEADSTAKAMVTEMCLGEEDFQQLQAQEGVAITFCLKEFRGLLSFAESANLNLSIHFDAPGRPAIFTIKDSLLDGHFVLATLSDTDS
interaction with AR (AR [1]): did not | interaction between AR N- and C-terminus (AR N/C interaction): no effect

B2: C-terminus of hRad9: hRad9 aa 269-391 (protein, UniProt Q99638 269-391, looked up, fragment)
chain: DSHSQDLGSPERHQPVPQLQAHSTPHPDDFANDDIDSYMIAMETTIGNEGSRVLPSISLSPGPQPPKSPGPHSEEEDEAEPSTVPGTPPPKKFRSLFFGSILAPVRSPQGPSPVLAEDSEGEG
interaction with AR (AR [1]): strong interaction | AR-mediated transactivation (full length AR) (AR [2]): suppressed | interaction between AR N- and C-terminus (AR N/C interaction): potently inhibit

B3: CL-100: MAPK phosphatase-1 (protein, UniProt P28562 1-367, looked up)
Dual specificity protein …: MVMEVGTLDAGGLRALLGERAAQCLLLDCRSFFAFNAGHIAGSVNVRFSTIVRRRAKGAMGLEHIVPNAELRGRLLAGAYHAVVLLDERSAALDGAKRDGTLALAAGALCREARAAQVFFLKGGYEAFSASCPELCSKQSTPMGLSLPLSTSVPDSAESGCSSCSTPLYDQGGPVEILPFLYLGSAYHASRKDMLDALGITALINVSANCPNHFEGHYQYKSIPVEDNHKADISSWFNEAIDFIDSIKNAGGRVFVHCQAGISRSATICLAYLMRTNRVKLDEAFEFVKQRRSIISPNFSFMGQLLQFESQVLAPHCSAEAGSPAMAVLDRGTSTTTVFNFPVSIPVHSTNSALSYLQSPITTSPSC
AR-activated GAL4-Elk1 activity [3]: diminished

B4: GSK3β: glycogen synthase kinase 3β, serine/threonine protein kinase (SEQ ID NO:5), wild type (protein)
chain: MSGRPRTTSFAESCKPVQQPSAFGSMKVSRDKDGSKVTTVVATPGQGPDRPQEVSYTDTKVIGNGSFGVVYQAKLCDSGELVAIKKVLQDKRFKNRELQIMRKLDHCNIVRLRYFFYSSGEKKDEVYLNLVLDYVPETVYRVARHYSRAKQTLPVIYVKLYMYQLFRSLAYIHSFGICHRDIKPQNLLLDPDTAVLKLCDFGSAKQLVRGEPNVSYICSRYYRAPELIFGATDYTSSIDVWSAGCVLAELLLGQPIFPGDSGVDQLVEIIKVLGTPTREQIREMNPNYTEFKFPQIKAHPWTKDSSGTGHFTSGVRVFRPRTPPEAIALCSRLLEYTPTARLTPLEACAHSFFDELRDPNVKLPNGRDTPALFNFTTQELSSNPPLATILIPPHARIQAAASTPTNATAASDANTGDRGQTNNAASASASNST
AR-mediated transcription of the luciferase reporter reduced by (AR [4]; ARE4-Luc, 10 nM DHT): about 40% | DHT-mediated AR transactivation / AR transcriptional activity (AR [4]; MMTV-Luc): inhibits | hGR transactivation [5]: failed to inhibit | activity of AR (AR [6]): reduced | expression of PSA mRNA ([7]; Northern blot, 10 nM DHT): reduced | DHT-mediated induction of transcription from the PSA promoter ([7]; PSA-luc): repressed | phosphorylation of GST-AR38-560 (N-terminus) (AR [8]): significantly phosphorylated | phosphorylation of GST-AR-DBD-LBD or 6His-AR-LBD (AR [8]): slightly phosphorylated | activity of GAL4-AR-LBD (AR AF-1 / AF-2): did not influence | constitutive transcriptional activity of GAL4-ARN (AR AF-1 / AF-2): inhibited | endogenous expression of AR (AR [9]): little change | binding of 35S-methionine-labeled AR to GST-GSK3β (AR [10]): bind specifically
